B1: Tryptophan synthase alpha chain, P0A877 (parent)
chain: MERYESLFAQLKERKEGAFVPFVTLGDPGIEQSLKIIDTLIEAGADALELGIPFSDPLADGPTIQNATLRAFAAGVTPAQCFEMLALIRQKHPTIPIGLLMYANLVFNKGIDEFYAQCEKVGVDSVLVADVPVEESAPFRQAALRHNVAPIFICPPNADDDLLRQIASYGRGYTYLLSRAGVTGAENRAALPLNHLVAKLKEYNAAPPLQGFGISAPDQVKAAIDAGAAGAISGSAIVKIIEQHINEPEKMLAALKVFVQPMKAATRS

Variants of: B1
Conditions: Escherichia coli (strain K12), pH 9, Thermal, DSC, Sodium tetraborate 1 mM, reversible: yes, structure 1WQ5, whole UniProt chain shown

Variant | ddG of mutation (higher = less stable) (50 °C) [kcal/mol] | heat capacity change of unfolding (50 °C) [kcal/mol/K] | unfolding free energy (50 °C) [kcal/mol] | Tm [°C] | change of melting temperature, mutant - wild type (higher = more stable) [°C] | heat capacity change of unfolding [kcal/mol/K] | unfolding enthalpy (calorimetric) [kcal/mol]
C154V | 1.12 | 4.21 | 0.05 | 50.2 | -3.3 | 4.21 | 71.5
C154A | 1.03 | 4.11 | 0.14 | 50.6 | -2.9 | 4.11 | 73
C154S |  |  |  | 45.3 | -8.2 | 3.52 | 46.4
C118S |  |  |  | 45 | -8.5 | 2.3 | 75.6
C118A |  |  |  | 49.2 | -4.3 | 3.3 | 82.3
C118V |  |  |  | 49.3 | -4.2 | 2.42 | 73
C81V |  |  |  | 49.1 | -4.4 | 4.31 | 57.4
C81A | 0.69 | 4.11 | 0.48 | 51.8 | -1.7 | 4.11 | 83.5
C81S |  |  |  | 49.1 | -4.4 | 5.02 | 92.8
C81G |  |  |  | 48.7 | -4.8 | 6.82 | 104
